Experimental data taken from the RNAGym collection of RNA variant scans (doi:10.7554/elife.80360).

B1: Hammerhead Ribozyme (parent)
chain: ACCGGAUGUGCUUUCCGGUCUGAUGAGUCCGUGAGGACGAAACAG

Variants of: B1
Assay: self-cleavage, relative activity (ratio to wild type); higher = more cleavage; co-transcriptional

Variant | self-cleavage
U13G U28C | 1.01
U13G U28G | 0.973
U13G U32A | 1.01
U13G U32C | 0.986
U13G U32G | 0.74
U14A | 0.954
U14A A23C | 0.345
U14A A23G | 0.351
U14A A23U | 0.272
U14A A26C | 0.47
U14A A26G | 0.343
U14A A26U | 0.65
U14A A34C | 1.05
U14A A34G | 0.73
U14A A34U | 0.903
U14A A37C | 0.815
U14A A37G | 0.811
U14A A37U | 0.618
U14A A40C | 0.491
U14A A40G | 0.296
U14A A40U | 0.237
U14A A41C | 0.302
U14A A41G | 0.28
U14A A41U | 0.296

Variant | self-cleavage
U14A A42C | 0.296
U14A A42G | 0.279
U14A A42U | 0.272
U14A A44C | 0.414
U14A A44G | 1.06
U14A A44U | 0.417
U14A C15A | 1.09
U14A C15G | 0.722
U14A C15U | 0.994
U14A C16A | 0.592
U14A C16G | 0.403
U14A C16U | 0.798
U14A C20A | 0.44
U14A C20G | 0.346
U14A C20U | 0.398
U14A C29A | 0.608
U14A C29G | 0.562
U14A C29U | 0.557
U14A C30A | 0.838
U14A C30G | 0.624
U14A C30U | 0.96
U14A C38A | 0.54
U14A C38G | 0.574
U14A C38U | 0.926

Variant | self-cleavage
U14A C43A | 0.333
U14A C43G | 0.334
U14A C43U | 0.41
U14A G17A | 0.586
U14A G17C | 0.375
U14A G17U | 0.564
U14A G18A | 0.327
U14A G18C | 0.456
U14A G18U | 0.644
U14A G22A | 0.36
U14A G22C | 0.327
U14A G22U | 0.331
U14A G25A | 0.28
U14A G25C | 0.288
U14A G25U | 0.297
U14A G27A | 0.771
U14A G27C | 0.661
U14A G27U | 0.405
U14A G31A | 0.81
U14A G31C | 1.01
U14A G31U | 1.31
U14A G33A | 0.751
U14A G33C | 0.987
U14A G33U | 0.872

Variant | self-cleavage
U14A G35A | 0.665
U14A G35C | 0.654
U14A G35U | 0.721
U14A G36A | 0.485
U14A G36C | 0.319
U14A G36U | 0.528
U14A G39A | 0.359
U14A G39C | 0.276
U14A G39U | 0.315
U14A G45A | 0.765
U14A G45C | 0.636
U14A G45U | 0.715
U14A U19A | 0.304
U14A U19C | 0.474
U14A U19G | 0.356
U14A U21A | 0.542
U14A U21C | 0.586
U14A U21G | 0.595
U14A U24A | 0.627
U14A U24C | 1.2
U14A U24G | 1.12
U14A U28A | 0.656
U14A U28C | 0.923
U14A U28G | 0.555

Variant | self-cleavage
U14A U32A | 1.38
U14A U32C | 0.946
U14A U32G | 0.989
U14C | 0.932
U14C A23C | 0.373
U14C A23G | 0.268
U14C A23U | 0.341
U14C A26C | 0.371
U14C A26G | 0.359
U14C A26U | 0.444
U14C A34C | 0.791
U14C A34G | 0.682
U14C A34U | 0.67
U14C A37C | 0.436
U14C A37G | 0.945
U14C A37U | 0.624
U14C A40C | 0.277
U14C A40G | 0.273
U14C A40U | 0.354
U14C A41C | 0.301
U14C A41G | 0.312
U14C A41U | 0.296
U14C A42C | 0.33
U14C A42G | 0.249

Variant | self-cleavage
U14C A42U | 0.423
U14C A44C | 0.489
U14C A44G | 1.24
U14C A44U | 0.393
U14C C15A | 0.72
U14C C15G | 0.794
U14C C15U | 0.996
U14C C16A | 0.931
U14C C16G | 0.722
U14C C16U | 0.95
U14C C20A | 0.337
U14C C20G | 0.301
U14C C20U | 0.457
U14C C29A | 0.461
U14C C29G | 0.497
U14C C29U | 0.709
U14C C30A | 0.7
U14C C30G | 0.65
U14C C30U | 0.613
U14C C38A | 0.532
U14C C38G | 0.489
U14C C38U | 1.15
U14C C43A | 0.279
U14C C43G | 0.309

Variant | self-cleavage
U14C C43U | 0.337
U14C G17A | 0.494
U14C G17C | 0.342
U14C G17U | 0.561
U14C G18A | 0.409
U14C G18C | 0.351
U14C G18U | 0.413
U14C G22A | 0.32
U14C G22C | 0.294
U14C G22U | 0.33
U14C G25A | 0.305
U14C G25C | 0.228
U14C G25U | 0.32
U14C G27A | 0.602
U14C G27C | 0.54
U14C G27U | 0.331
U14C G31A | 0.918
U14C G31C | 0.816
U14C G31U | 1.05
U14C G33A | 0.754
U14C G33C | 0.851
U14C G33U | 1.09
U14C G35A | 0.565
U14C G35C | 0.499

Variant | self-cleavage
U14C G35U | 0.761
U14C G36A | 0.552
U14C G36C | 0.31
U14C G36U | 0.455
U14C G39A | 0.349
U14C G39C | 0.337
U14C G39U | 0.294
U14C G45A | 0.472
U14C G45C | 0.441
U14C G45U | 0.485
U14C U19A | 0.362
U14C U19C | 0.398
U14C U19G | 0.334
U14C U21A | 0.347
U14C U21C | 0.504
U14C U21G | 0.319
U14C U24A | 0.726
U14C U24C | 0.889
U14C U24G | 0.816
U14C U28A | 0.501
U14C U28C | 0.706
U14C U28G | 0.544
U14C U32A | 0.825
U14C U32C | 0.61

Variant | self-cleavage
U14C U32G | 0.546
U14G | 0.77
U14G A23C | 0.36
U14G A23G | 0.248
U14G A23U | 0.256
U14G A26C | 0.764
U14G A26G | 0.223
U14G A26U | 0.569
U14G A34C | 0.875
U14G A34G | 0.652
U14G A34U | 0.782
U14G A37C | 0.777
U14G A37G | 0.782
U14G A37U | 0.566
U14G A40C | 0.52
U14G A40G | 0.366
U14G A40U | 0.356
U14G A41C | 0.34
U14G A41G | 0.3
U14G A41U | 0.367
U14G A42C | 0.382
U14G A42G | 0.381
U14G A42U | 0.268
U14G A44C | 0.681

Variant | self-cleavage
U14G A44G | 1.32
U14G A44U | 0.609
U14G C15A | 0.659
U14G C15G | 0.771
U14G C15U | 0.581
U14G C16A | 0.642
U14G C16G | 0.476
U14G C16U | 0.849
U14G C20A | 0.481
U14G C20G | 0.297
U14G C20U | 0.393
U14G C29A | 0.677
U14G C29G | 0.737
U14G C29U | 0.625
U14G C30A | 0.924
U14G C30G | 0.721
U14G C30U | 0.552
U14G C38A | 0.435
U14G C38G | 0.603
U14G C38U | 0.796
U14G C43A | 0.304
U14G C43G | 0.416
U14G C43U | 0.547
U14G G17A | 0.544

Variant | self-cleavage
U14G G17C | 0.27
U14G G17U | 0.485
U14G G18A | 0.54
U14G G18C | 0.533
U14G G18U | 0.522
U14G G22A | 0.314
U14G G22C | 0.301
U14G G22U | 0.394
U14G G25A | 0.315
U14G G25C | 0.315
U14G G25U | 0.28
U14G G27A | 0.757
U14G G27C | 0.618
U14G G27U | 0.515
U14G G31A | 0.929
U14G G31C | 0.967
U14G G31U | 0.51
U14G G33A | 0.518
U14G G33C | 0.528
U14G G33U | 0.678
U14G G35A | 0.725
U14G G35C | 0.509
U14G G35U | 0.611
U14G G36A | 0.729

Variant | self-cleavage
U14G G36C | 0.377
U14G G36U | 0.565
U14G G39A | 0.305
U14G G39C | 0.41
U14G G39U | 0.359
U14G G45A | 0.708
U14G G45C | 0.879
U14G G45U | 0.776
U14G U19A | 0.383
U14G U19C | 0.715
U14G U19G | 0.422
U14G U21A | 0.741
U14G U21C | 0.812
U14G U21G | 0.572
U14G U24A | 1.03
U14G U24C | 0.611
U14G U24G | 0.575
U14G U28A | 0.796
U14G U28C | 0.602
U14G U28G | 0.585
U14G U32A | 0.811
U14G U32C | 0.653
U14G U32G | 1.01
C15A | 0.93

Variant | self-cleavage
C15A A23C | 0.307
C15A A23G | 0.428
C15A A23U | 0.276
C15A A26C | 0.437
C15A A26G | 0.248
C15A A26U | 0.446
C15A A34C | 1.09
C15A A34G | 0.96
C15A A34U | 0.879
C15A A37C | 0.403
C15A A37G | 0.895
C15A A37U | 0.434
C15A A40C | 0.361
C15A A40G | 0.415
C15A A40U | 0.394
C15A A41C | 0.338
C15A A41G | 0.325
C15A A41U | 0.287
C15A A42C | 0.291
C15A A42G | 0.264
C15A A42U | 0.282
C15A A44C | 0.404
C15A A44G | 0.897
C15A A44U | 0.441

Variant | self-cleavage
C15A C16A | 0.869
C15A C16G | 0.521
C15A C16U | 0.647
C15A C20A | 0.316
C15A C20G | 0.289
C15A C20U | 0.438
C15A C29A | 0.457
C15A C29G | 0.486
C15A C29U | 0.753
C15A C30A | 0.782
C15A C30G | 0.557
C15A C30U | 1.01
C15A C38A | 0.501
C15A C38G | 0.515
C15A C38U | 0.814
C15A C43A | 0.341
C15A C43G | 0.337
C15A C43U | 0.415
C15A G17A | 0.351
C15A G17C | 0.328
C15A G17U | 0.374
C15A G18A | 0.323
